The source of these data is the supplement of paper PMC10567573.

± gives the standard deviation.

The nature of the data set: protein stability index of a GFP-peptide fusion (GPS, HEK-293T) (PSI 1-6); higher = more stable. Particulars: c terminus: a fixed tail appended.
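Also: 24-mer peptide tiles fused after GFP, lentivirally expressed, FACS-sorted into six equal bins by GFP/DsRed ratio, decoded by Illumina sequencing, PSI is the read-weighted mean bin number.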

Consider TVLLVLEDEDPEEMPKSSDFLIHP [PCDHGC5], for which the protein stability index is, setting by setting: (treatment: DMSO) 2.75 ± 0.15; (treatment: MLN4924 1 uM, 8 h) 2.91 ± 0.21.

For the sequence TVMMWPLAVYHRLWDRAYVRLKPA [RETREG3], the protein stability index (treatment: DMSO) worked out at 2.34 ± 0.23 and the protein stability index (treatment: MLN4924 1 uM, 8 h) amounted to 2.27 ± 0.15.

Consider TVNALEIELQAQHSMRNSLESTLA [KRT36], for which the protein stability index was found to be 3.38 ± 0.31 (treatment: DMSO) and 3.38 ± 0.29 (treatment: MLN4924 1 uM, 8 h).

Turning to TWLKGKFTELRLLLDEEEALAKKF [TRIM14], the protein stability index is, setting by setting: (treatment: DMSO) 2.23 ± 0.42; (treatment: MLN4924 1 uM, 8 h) 2.34 ± 0.23.

VAQCLRDLVAMQWADAAGEAVPEG [ZSWIM9]: the protein stability index reads like this: (treatment: DMSO) 2.92 ± 0.33; (treatment: MLN4924 1 uM, 8 h) 3.06 ± 0.36.

Turning to VAVDYCASENHGCEHECVNADGSY [MATN2], the protein stability index (treatment: DMSO) came to 5.08 ± 0.13 and the protein stability index (treatment: MLN4924 1 uM, 8 h) was 5.07 ± 0.054.

VCRDSVSRKGELTPLPETGYWRVR [TRIM39]: the protein stability index came to 2.55 ± 0.1 (treatment: DMSO) and 2.71 ± 0.57 (treatment: MLN4924 1 uM, 8 h).

With VCRIGDWLQERYEIVGNLGEGTFG [CLK3], the protein stability index (treatment: DMSO) was determined as 2.22 ± 0.42 and the protein stability index (treatment: MLN4924 1 uM, 8 h) turned out to be 2.37 ± 0.33.

As for VCSDYASGYHYGVWSCEGCKAFFK [ESR2], the protein stability index runs as follows: (treatment: DMSO) 2.33 ± 0.35; (treatment: MLN4924 1 uM, 8 h) 2.56 ± 0.34.

As to VCVIAIGVVQALIVGYAFHFPHLL [TMEM175], the protein stability index was 3.11 ± 0.62 (treatment: DMSO) and 3.09 ± 0.4 (treatment: MLN4924 1 uM, 8 h).

VDSFQIILDSLLFFYDCSNNPISE [TENT5C]: the protein stability index reads like this: (treatment: DMSO) 3.03 ± 0.14; (treatment: MLN4924 1 uM, 8 h) 3.14 ± 0.41.

As to VEEQLAQLRCEMEQQNQEYKILLD [KRT17], the protein stability index (treatment: DMSO) stood at 4.75 ± 0.29 and the protein stability index (treatment: MLN4924 1 uM, 8 h) was determined as 4.78 ± 0.22.

For the sequence VFDLPESLGGIRACTLTVFPPEET [KLHL13], the protein stability index runs as follows: (treatment: DMSO) 3.33 ± 0.41; (treatment: MLN4924 1 uM, 8 h) 3.39 ± 0.37.

As to VFDLRMMVANILNNEAFMNQEITK [RHOBTB2], the protein stability index reads like this: (treatment: DMSO) 2.72 ± 0.47; (treatment: MLN4924 1 uM, 8 h) 2.43 ± 0.46.

For VFQHHQYLSPLERKRLAREMQLSE [VENTX], the protein stability index was determined as 2.81 ± 0.26 (treatment: DMSO) and 3.08 ± 0.37 (treatment: MLN4924 1 uM, 8 h).

In the case of VGHNHTYNMAPSALDSADLPPPSA [NFE2L1], the protein stability index was determined as 4.61 ± 0.16 (treatment: DMSO) and 4.43 ± 0.36 (treatment: MLN4924 1 uM, 8 h).

As to VGKGEILESLQDGAAESPYAYSNG [RAB40C], the protein stability index reads like this: (treatment: DMSO) 4.88 ± 0.24; (treatment: MLN4924 1 uM, 8 h) 4.79 ± 0.2.

Turning to VHEVLQAVDAGDPAVEACENRRKV [TCF25], the protein stability index was 5.3 ± 0.22 (treatment: DMSO) and 5.35 ± 0.097 (treatment: MLN4924 1 uM, 8 h).

As for VIDGRNVTVTDVDIVFSKIKGKSC [TPPP], the protein stability index stood at 2.6 ± 0.3 (treatment: DMSO) and 2.75 ± 0.41 (treatment: MLN4924 1 uM, 8 h).

VIMQVPERIVVAGNNEDVSFSRPA [MFF] returned a protein stability index (treatment: DMSO) of 3.4 ± 0.3 and a protein stability index (treatment: MLN4924 1 uM, 8 h) of 3.47 ± 0.6.

Take VIVMTTRFEEGGRRKCGQYWPLEK [PTPN9]: the protein stability index is, setting by setting: (treatment: DMSO) 2.12 ± 0.75; (treatment: MLN4924 1 uM, 8 h) 2.47 ± 0.57.

The sequence VKESGERKVTDSISKSLELCNEIS [DLC1] showed a protein stability index (treatment: DMSO) of 4.52 ± 0.11 and a protein stability index (treatment: MLN4924 1 uM, 8 h) of 4.82 ± 0.21.

As to VKIESVKLDFKEKAQAKVGSLDNA [MAP2], the protein stability index was 3.5 ± 0.24 (treatment: DMSO) and 3.52 ± 0.24 (treatment: MLN4924 1 uM, 8 h).

As to VKKYKSMKLEKEEFVTLKAIALAN [ESRRG], the protein stability index amounted to 2.46 ± 0.32 (treatment: DMSO) and 2.66 ± 0.2 (treatment: MLN4924 1 uM, 8 h).

Consider VKMDSSIQPGPFRAVLKYLYTGEL [RHOBTB2], for which the protein stability index worked out at 2.32 ± 0.96 (treatment: DMSO) and 2.02 ± 0.45 (treatment: MLN4924 1 uM, 8 h).

For VKQKISPYFKSNDVVCKNQDELRN [FAN1], the protein stability index is, setting by setting: (treatment: DMSO) 3.84 ± 0.24; (treatment: MLN4924 1 uM, 8 h) 3.64 ± 0.44.

Turning to VLADLHSAEQLKAQAIDFINRCSV [SPOPL], the protein stability index reads like this: (treatment: DMSO) 2.15 ± 0.14; (treatment: MLN4924 1 uM, 8 h) 2.29 ± 0.39.

For VLAIIAREGDCAPEEKIWEELSVL [MAGEA3], the protein stability index stood at 2.62 ± 0.48 (treatment: DMSO) and 2.42 ± 0.4 (treatment: MLN4924 1 uM, 8 h).

In the case of VLCEAAFPKKLAFAYLEDLHSEFD [SEC22B], the protein stability index was 2.14 ± 0.28 (treatment: DMSO) and 2.31 ± 0.12 (treatment: MLN4924 1 uM, 8 h).
